PMC11552096 (Journal of molecular biology, 2020)

B1: hsSUN2_(522-717), wild type, as crystallised with KASH4 (domain or fragment, human, UniProt Q9UH99 522-717, looked up)
chain: GVTEEQVHHIVKQALQRYSEDRIGLADYALESGGASVISTRCSETYETKTALLSLFGIPLWYHSQSPRVILQPDVHPGNCWAFQGPQGFAVVRLSARIRPTAVTLEHVPKALSPNSTISSAPKDFAIFGFDEDLQQEGTLLGKFTYDQDGEPIQTFHFQAPTMATYQVVELRILTNWGHPEYTCIYRFRVHGEPAH
B2: hsSUN2_(522-717) with 4 surface point mutations Q534D, T683G, M684R, A685G (domain or fragment, human, UniProt Q9UH99 522-717, looked up)
chain: GVTEEQVHHIVKDALQRYSEDRIGLADYALESGGASVISTRCSETYETKTALLSLFGIPLWYHSQSPRVILQPDVHPGNCWAFQGPQGFAVVRLSARIRPTAVTLEHVPKALSPNSTISSAPKDFAIFGFDEDLQQEGTLLGKFTYDQDGEPIQTFHFQAPGRGTYQVVELRILTNWGHPEYTCIYRFRVHGEPAH
B3: apo-SUN2_(500-717) (domain or fragment, human, UniProt Q9UH99 500-717, looked up)
chain: QGKSAREAAASLSLTLQKEGVIGVTEEQVHHIVKQALQRYSEDRIGLADYALESGGASVISTRCSETYETKTALLSLFGIPLWYHSQSPRVILQPDVHPGNCWAFQGPQGFAVVRLSARIRPTAVTLEHVPKALSPNSTISSAPKDFAIFGFDEDLQQEGTLLGKFTYDQDGEPIQTFHFQAPTMATYQVVELRILTNWGHPEYTCIYRFRVHGEPAH

Target: the molecule itself
Test: crystal structure

Stoichiometry N, 3:
B1
B2
B3
